Data taken from patent US20240270860A1.

Biological target: T1, S03933
T1 chain: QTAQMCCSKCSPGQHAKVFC
Test: linear peptide ELISA; Affinity +
Conditions: remark: other sources report otherwise

Reading: 0.1
B1: antagonistic TNFR2 antibody TNFRAB1 (antibody, V domains shown)
VH: EVQLQESGGGLVKPGGSLKLSCAASGFTFSSYVMSWVRQTPEKRLEWVATISSGGSYTYYPDSVKGRFTISRDNAKNTLYLQMSSLRSEDTAMYYCARQRVDGYSSYWYFDVWGAGTAVTVSS
VL: DIVLTQSPAIMSASPGEKVTITCSASSSVYYMYWFQQKPGTSPKLWIYSTSNLASGVPVRFSGSGSGTSYSLTISRMEAEDAATYYCQQRRNYPYTFGGGTKLEIKRA
